From patent US20230212239A1, “INHIBITORS OF CBL AUTOINHIBITION AND RELATED METHODS” (THE HOSPITAL FOR SICK CHILDREN, priority 2020, published 2023) come the findings set out here.

Common to all, as to assay type: biochemical
One data set addresses T1, CBL G306E (Homo sapiens, UniProt P22681, G306E).
T1 construct: Residues 25-357 and 2-436 of CBL were cloned in frame into pGEX4T-1; GST (N, cleaved yes); made in house; host or cells: E. coli BL-21
T1 sequence (P22681 2-436 G306E): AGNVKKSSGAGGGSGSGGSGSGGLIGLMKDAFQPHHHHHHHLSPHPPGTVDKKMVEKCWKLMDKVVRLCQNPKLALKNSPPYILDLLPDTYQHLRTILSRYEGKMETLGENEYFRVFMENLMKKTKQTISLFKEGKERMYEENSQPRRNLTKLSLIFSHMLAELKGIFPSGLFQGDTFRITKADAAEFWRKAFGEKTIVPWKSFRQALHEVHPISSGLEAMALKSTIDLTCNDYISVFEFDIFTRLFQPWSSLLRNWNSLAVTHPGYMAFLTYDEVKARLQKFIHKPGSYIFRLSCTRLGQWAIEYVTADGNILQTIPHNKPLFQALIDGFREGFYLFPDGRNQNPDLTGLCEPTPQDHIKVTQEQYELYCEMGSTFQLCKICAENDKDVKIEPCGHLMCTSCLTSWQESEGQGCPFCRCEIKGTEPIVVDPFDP
The data set can be described thus: In vitro ubiquitination assays with CBL mutant G306E. Particulars: CBL mutant that abolishes phospho-tyrosine binding. On the procedure:
Thus, we tested whether the ability of SLAP2 to promote CBL ubiquitination activity is influenced by canonical TKBD-phospho-tyrosine interactions.
(§1) In vitro ubiquitination reactions were prepared with 20 pmol of CBL or pCBL and 60 pmol of hSLAP2 or phosphorylated hSLAP2 (pSLAP2) for both WT and mutants. Reagents were thawed and reactions prepared on ice. […]
(§2) Ubiquitination reactions were set up as above (25 µL total volume) in triplicate and diluted with reaction buffer after completion (1:40 for pCBL, 1:15 for all other reactions). […] Wells were washed four times with PBS-T and 25 µL of prepared Immobilon Western Chemiluminescent HRP Substrate (Millipore #P90719) added to each well immediately prior to the plate being read on a Synergy Neo2 Plate Reader (BioTek Instruments). […] Standard deviation of the reaction averages was calculated and used as a measure of error. Each reaction set was analyzed at least twice with fresh protein purifications.

The target in data set [1] is T2, phosphorylated CBL (pCBL) (Homo sapiens, UniProt P22681).
T2 construct: GST (N, cleaved yes); made in house
T2 sequence (P22681 2-436): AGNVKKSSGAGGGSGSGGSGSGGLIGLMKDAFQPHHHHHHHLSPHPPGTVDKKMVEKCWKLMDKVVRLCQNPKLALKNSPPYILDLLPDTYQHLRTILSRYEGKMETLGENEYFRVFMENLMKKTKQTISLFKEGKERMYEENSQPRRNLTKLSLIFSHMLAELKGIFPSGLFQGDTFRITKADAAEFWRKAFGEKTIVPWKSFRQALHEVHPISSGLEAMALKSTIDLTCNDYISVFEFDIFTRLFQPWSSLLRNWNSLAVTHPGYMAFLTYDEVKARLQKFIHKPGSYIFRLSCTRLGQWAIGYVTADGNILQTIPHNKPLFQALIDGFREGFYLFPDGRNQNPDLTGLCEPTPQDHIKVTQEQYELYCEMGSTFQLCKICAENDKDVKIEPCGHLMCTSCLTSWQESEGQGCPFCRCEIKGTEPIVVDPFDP
The experiment in a line: In vitro ubiquitination assay, anti-ubiquitin immunoblot, phosphorylated CBL. The note with it: added to phosphorylated CBL.
From the text: (§3) Given that binding of SLAP2 and the LHR-RING would be mutually exclusive (FIG. 8C), we reasoned that binding of SLAP2 to CBL could displace the LHR-RING, thereby promoting the catalytically competent conformation. To test this hypothesis, an in vitro ubiquitination assay in which E3 ligase activity is detected by a smear at high molecular weight on an anti-ubiquitin (Ub) immunoblot was employed. […] To further compare and quantify CBL ubiquitin ligase activity, a chemiluminescence based assay which measures the total amount of polyubiquitylated products formed in an in vitro reaction was used. In this assay, production of polyubiquitylated proteins increased upon addition of SLAP2 or pSLAP2 to CBL, compared to CBL alone (FIG. 9C and FIG. 10A).
as §1
(Immunoblotting shows a protein as a band on a membrane.)

The next data set has as its target T3, CBL TKBD-LHR-RING (Homo sapiens, UniProt P22681).
T3 construct: GST (N, cleaved yes); made in house; host or cells: E. coli BL-21
T3 sequence (P22681 2-436): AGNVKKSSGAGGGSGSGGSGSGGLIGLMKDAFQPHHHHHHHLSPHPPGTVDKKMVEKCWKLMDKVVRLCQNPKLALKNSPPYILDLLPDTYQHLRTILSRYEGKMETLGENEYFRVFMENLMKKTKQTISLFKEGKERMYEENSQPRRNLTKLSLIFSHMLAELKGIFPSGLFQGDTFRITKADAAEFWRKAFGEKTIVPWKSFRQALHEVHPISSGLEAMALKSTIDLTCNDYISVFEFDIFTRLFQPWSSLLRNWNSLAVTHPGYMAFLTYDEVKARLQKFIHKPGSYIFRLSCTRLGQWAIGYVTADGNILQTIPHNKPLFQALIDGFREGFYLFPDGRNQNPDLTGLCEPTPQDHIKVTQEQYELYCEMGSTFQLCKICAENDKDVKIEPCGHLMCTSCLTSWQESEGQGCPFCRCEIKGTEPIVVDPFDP
The experiment in a line: Chemiluminescence based E3LITE assay of total polyubiquitylated products. Particulars: added to CBL, compared to CBL alone.
From the text: as §3, §2

“Also recorded” adds a separate entry of the source.

B1: pSLAP2: tyrosine phosphorylated SLAP2 expressed in TKB1 cells (protein, UniProt Q9H6Q3 2-261, looked up)
Src-like-adapter 2: GSLPSRRKSLPSPSLSSSVQGQGPVTMEAERSKATAVALGSFPAGGPAELSLRLGEPLTIVSEDGDWWTVLSEVSGREYNIPSVHVAKVSHGWLYEGLSREKAEELLLLPGNPGGAFLIRESQTRRGSYSLSVRLSRPASWDRIRHYRIHCLDNGWLYISPRLTFPSLQALVDHYSELADDICCLLKEPCVLQRAGPLPGKDIPLPVTVQRTPLNWKELDSSLLFSEAATGEESLLSEGLRESLSFYISLNDEAVSLDDA
modifications: tyrosine phosphorylated
notes: tyrosine phosphorylated SLAP2 expressed in TKB1 cells
In the case of B1, in the data set with CBL G306E, the “CBL G306E ubiquitination activity” value was “stimulated CBL G306E ubiquitination activity”. In addition, the “ubiquitination activity of active pCBL” value in data set [1] was “Neither addition of SLAP2 nor pSLAP2 to active pCBL appeared to further enhance or diminish ubiquitination activity”. Besides, the “production of polyubiquitylated proteins / CBL ligase activity” value with CBL TKBD-LHR-RING was “increased; also recorded: stimulated CBL ligase activity to a greater extent than SLAP2”.

B2: Trx-His(6)-Δlinker-hSLAP2 (human SLAP2 29-261) (other)
chain: EAERSKATAVALGSFPAGGPAELSLRLGEPLTIVSEDGDWWTVLSEVSGREYNIPSVHVAKVSHGWLYEGLSREKAEELLLLPGNPGGAFLIRESQTRRGSYSLSVRLSRPASWDRIRHYRIHCLDNGWLYISPRLTFPSLQALVDHYSELADDICCLLKEPCVLQRAGPLPGKDIPLPVTVQRTPLNWKELDSSLLFSEAATGEESLLSEGLRESLSFYISLNDEAVSLDDA
notes: also called Trx-His-SLAP2; SLAP2 WT; not shown: N-terminal thioredoxin (Trx)-His(6)-TEV-site tag and linker of the modified pET32a (Δlinker version)
Turning to B2, the “ubiquitination activity of active pCBL” value in data set [1] was “Neither addition of SLAP2 nor pSLAP2 to active pCBL appeared to further enhance or diminish ubiquitination activity”. Further, the “production of polyubiquitylated proteins / CBL ligase activity” value with CBL TKBD-LHR-RING was “increased”.
